Tests used:
[1] = molecular target: MT145 SOSIP.664 trimer (chimpanzee SIVcpzPtt MT145 Env, wild-type V2) (SIVcpzPtt (chimpanzee SIV), isolate MT145)
[2] = molecular target: MT145K SOSIP.664 trimer (chimpanzee SIVcpzPtt MT145 Env, Q171K) (SIVcpzPtt (chimpanzee SIV), isolate MT145); test: cryo-EM structure

MT145 SOSIP.664 trimer (chimpanzee SIVcpzPtt MT145 Env, wild-type V2) (complex)
stoichiometry N [1]: 3

MT145K SOSIP.664 trimer (chimpanzee SIVcpzPtt MT145 Env, Q171K) (complex)
stoichiometry N [2]: 3

From publication doi:10.1101/459164
